Assay results as given in US20090304651A1 (published 2009).
Numbering of substitutions follows the chain as printed. Names may count otherwise.

B1: IGF2R domain 11 with arginine at position 1544 (E1544R) (receptor)
chain: NEHDDCQVTNPSTGHLFDLSSLSGRAGFTAAYSRKGLVYMSICGENENCPPGVGACFGQTRISVGKANKRLRYVDQVLQLVYKDGSPCPSKSGLSYKSVISFVCRPEAGPTNRPMLISLDKQTCTLFFSWHTPLACEQATHHHHHH
B2: IGF2R domain 11 with proline at position 1544 (E1544P) (receptor)
chain: B1 chain with R34P
B3: IGF2R domain 11 with isoleucine at position 1544 (E1544I) (receptor)
chain: B1 chain with R34I
B4: IGF2R domain 11 with serine at position 1544 (E1544S) (receptor)
chain: B1 chain with R34S
B5: IGF2R domain 11 with glutamine at position 1544 (E1544Q) (receptor)
chain: B1 chain with R34Q
B6: IGF2R domain 11 with tryptophan at position 1544 (E1544W) (receptor)
chain: B1 chain with R34W
B7: IGF2R domain 11 with tyrosine at position 1544 (E1544Y) (receptor)
chain: B1 chain with R34Y
B8: IGF2R domain 11 with aspartate at position 1544 (E1544D) (receptor)
chain: B1 chain with R34D
B9: IGF2R domain 11 with histidine at position 1544 (E1544H) (receptor)
chain: B1 chain with R34H
B10: IGF2R domain 11 with glycine at position 1544 (E1544G) (receptor)
chain: B1 chain with R34G
B11: IGF2R domain 11 with phenylalanine at position 1544 (E1544F) (receptor)
chain: B1 chain with R34F
B12: IGF2R domain 11 with asparagine at position 1544 (E1544N) (receptor)
chain: B1 chain with R34N
B13: IGF2R domain 11 with leucine at position 1544 (E1544L) (receptor)
chain: B1 chain with R34L
B14: IGF2R domain 11 with methionine at position 1544 (E1544M) (receptor)
chain: B1 chain with R34M
B15: IGF2R domain 11 with threonine at position 1544 (E1544T) (receptor)
chain: B1 chain with R34T
B16: IGF2R domain 11 Q1569A (amino acids 1511-1650, C-terminal His6 tag, from Pichia pastoris) (receptor)
chain: B1 chain with R34E, Q59A
B17: IGF2R domain 11 Y1542A (amino acids 1511-1650, C-terminal His6 tag, from Pichia pastoris) (receptor)
chain: B1 chain with Y32A, R34E
B18: IGF2R domain 11 T1570A (amino acids 1511-1650, C-terminal His6 tag, from Pichia pastoris) (receptor)
chain: B1 chain with R34E, T60A
B19: IGF2R domain 11 K1545A (amino acids 1511-1650, C-terminal His6 tag, from Pichia pastoris) (receptor)
chain: B1 chain with R34E, K35A
B20: IGF2R domain 11 S1543A (amino acids 1511-1650, C-terminal His6 tag, from Pichia pastoris) (receptor)
chain: B1 chain with S33A, R34E
B21: IGF2R domain 11 G1619R (amino acids 1511-1650, C-terminal His6 tag, from Pichia pastoris) (receptor)
chain: B1 chain with R34E, G109R
notes: also called polymorphism G1619R

Molecular target: T1, recombinant human IGF-II (Insulin-like Growth Factor II) (human, UniProt P01344 25-91, biotinylated (Biotinyl-IGF-II, GroPep) where immobilised in SPR, site not stated; not biotinylated in ITC and as SPR analyte)
T1 construct: also called IGF2; IGF-2
T1 sequence (P01344 25-91 limits assumed): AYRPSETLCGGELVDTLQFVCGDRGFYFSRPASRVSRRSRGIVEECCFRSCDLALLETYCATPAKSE
Assay: SPR, IGF-II immobilised, kinetic fit
Method in brief: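 Kd, together with association and dissociation rates, was determined by globally fitting blank-flow-cell- and buffer-subtracted sensorgrams in BIAevaluation 4.0.1. The sensorgrams were recorded on a BIAcore 3000 at 25° C in HBS-EP, flowing at 40 μl/min, by injecting His-tag-purified, Pichia pastoris-secreted domain 11 proteins in duplicate and in randomised order over ~50 RU biotinylated IGF-II on a streptavidin Sensor Chip SA. Each injection lasted 2 min, followed by 100 s dissociation and regeneration with 2 M MgCl₂. Analyte was run at 4096–8 nM, except for three constructs run at 16384–32 nM.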

Point of comparison: B15, Kd 69.3 nM. Against it:
- B1 — 3.9-fold lower, 17.8 nM
- B2 — 3.4-fold higher, 234 nM
- B3 — within 1.5-fold, 49.9 nM
- B4 — 3-fold lower, 23.3 nM
- B5 — 2.1-fold lower, 32.8 nM
- B6 — within 1.5-fold, 62.8 nM
- B7 — within 1.5-fold, 65 nM
- B8 — 3.3-fold higher, 230 nM
- B9 — 1.8-fold lower, 38.3 nM
- B10 — 2.9-fold higher, 199 nM
- B11 — within 1.5-fold, 69.4 nM
- B12 — 2-fold higher, 141 nM
- B13 — within 1.5-fold, 62.4 nM
- B14 — 1.6-fold lower, 44.6 nM

Point of comparison: B3, koff 0.0649 s⁻¹. Against it:
- B1 — 1.6-fold lower, 0.0407 s⁻¹
- B2 — 2.7-fold higher, 0.172 s⁻¹
- B4 — within 1.5-fold, 0.0494 s⁻¹
- B5 — within 1.5-fold, 0.0578 s⁻¹
- B6 — within 1.5-fold, 0.0588 s⁻¹
- B7 — within 1.5-fold, 0.0614 s⁻¹
- B8 — 2.2-fold higher, 0.14 s⁻¹
- B9 — within 1.5-fold, 0.0689 s⁻¹
- B10 — 3.4-fold higher, 0.219 s⁻¹
- B11 — within 1.5-fold, 0.0791 s⁻¹
- B12 — 1.9-fold higher, 0.122 s⁻¹
- B13 — within 1.5-fold, 0.0655 s⁻¹
- B14 — within 1.5-fold, 0.0566 s⁻¹
- B15 — within 1.5-fold, 0.0692 s⁻¹

Point of comparison: B2, kon 734000 M⁻¹ s⁻¹. Against it:
- B1 — 3.1-fold higher, 2.29e+06 M⁻¹ s⁻¹
- B3 — 1.8-fold higher, 1.3e+06 M⁻¹ s⁻¹
- B4 — 2.9-fold higher, 2.12e+06 M⁻¹ s⁻¹
- B5 — 2.4-fold higher, 1.76e+06 M⁻¹ s⁻¹
- B6 — within 1.5-fold, 936000 M⁻¹ s⁻¹
- B7 — within 1.5-fold, 944000 M⁻¹ s⁻¹
- B8 — within 1.5-fold, 608000 M⁻¹ s⁻¹
- B9 — 2.5-fold higher, 1.8e+06 M⁻¹ s⁻¹
- B10 — within 1.5-fold, 1.1e+06 M⁻¹ s⁻¹
- B11 — 1.6-fold higher, 1.14e+06 M⁻¹ s⁻¹
- B12 — within 1.5-fold, 867000 M⁻¹ s⁻¹
- B13 — within 1.5-fold, 1.05e+06 M⁻¹ s⁻¹
- B14 — 1.7-fold higher, 1.27e+06 M⁻¹ s⁻¹
- B15 — within 1.5-fold, 998000 M⁻¹ s⁻¹

Molecular target: T1, recombinant human IGF-II (Insulin-like …)
Assay: SPR, steady-state KD relative to wild type
Method in brief: (§1)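 Duplicate 2 min injections of His-tag-purified, Pichia pastoris-secreted domain 11 proteins at 4096–8 nM (16384–32 nM for three constructs) passed over ~50 RU biotinylated IGF-II on a streptavidin Sensor Chip SA. A BIAcore 3000 ran at 25° C in HBS-EP at 40 μl/min, with blank-flow-cell and buffer-injection responses subtracted. Equilibrium responses were fitted in BIAevaluation to a steady-state affinity model to yield Kd, and relative affinity scales each value to the unaltered domain 11 protein.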

Point of comparison: B6, “Relative Affinity” value 1.94 fold (wild type = 1.00). Against it:
- B1 — higher, 7.33 fold (wild type = 1.00)
- B2 — lower, 0.49 fold (wild type = 1.00)
- B3 — higher, 2.43 fold (wild type = 1.00)
- B4 — higher, 5.24 fold (wild type = 1.00)
- B5 — higher, 3.87 fold (wild type = 1.00)
- B7 — lower, 1.8 fold (wild type = 1.00)
- B8 — lower, 0.48 fold (wild type = 1.00)
- B9 — higher, 3.07 fold (wild type = 1.00)
- B10 — lower, 0.57 fold (wild type = 1.00)
- B11 — lower, 1.83 fold (wild type = 1.00)
- B12 — lower, 0.88 fold (wild type = 1.00)
- B13 — higher, 2.02 fold (wild type = 1.00)
- B14 — higher, 2.75 fold (wild type = 1.00)
- B15 — lower, 1.72 fold (wild type = 1.00)

Molecular target: T1, recombinant human IGF-II (Insulin-like …)
Assay: SPR, IGF-II immobilised, kinetic fit
Remark: another data set of the same source
Description: (§2) Kinetic analysis by Surface Plasmon Resonance (SPR) was conducted on a BIAcore 3000 biosensor (BIAcore, Uppsala, Sweden) at 25° C. in HBS-EP (10 mM HEPES, pH 7.4, 150 mM NaCl, 3 mM EDTA, 0.005% surfactant P20) at a flow rate of 40 μl/min. […] Kinetic experiments consisted of a two minute injection of analyte followed by a 100 s dissociation phase in running buffer, after which the binding surface was regenerated with a 2 minute injection of 2 M MgCl₂. A blank flow cell was used for in-line reference subtraction of changes due to differences in refractive index of running buffer versus sample and a buffer-only injection was used to subtract instrument noise and drift. Injections were performed in duplicate for each concentration and in a randomised order. Kinetic parameters were determined by global fitting of sensorgrams to a two-state (conformational change) binding model using BIAevaluation software version 4.0.1. In all cases the minor component made an insignificant contribution to the overall affinity and as such only the kinetic parameters of the major binding component were used. For each interaction the dissociation affinity constant (KD) was also calculated by fitting of the response of each concentration at equilibrium to a steady-state affinity model using BIAevaluation. In order to investigate the influence of ionic strength, kinetic experiments were conducted in HBS-EP running buffers containing the desired NaCl concentration. In each case, analyte samples were made up in the appropriate running buffer prior to injection.
(§3) Following purification, the binding of each mutant construct to IGF2 was assessed by SPR and compared to the wild type domain 11. Sensorgrams were generated using biotinylated IGF2 immobilised to the cell surface and mutant domain 11 proteins as the free analyte (FIG. 4).

Point of comparison: B17, Kd 639 nM. Against it:
- B16 — 4.9-fold lower, 130 nM
- B18 — within 1.5-fold, 954 nM
- B19 — 2.2-fold lower, 287 nM
- B20 — 2.5-fold lower, 260 nM

Point of comparison: B17, koff 0.169 s⁻¹. Against it:
- B16 — 2.4-fold lower, 0.069 s⁻¹
- B18 — 1.7-fold higher, 0.281 s⁻¹
- B19 — 2.2-fold lower, 0.078 s⁻¹
- B20 — 1.8-fold lower, 0.096 s⁻¹

Point of comparison: B16, kon 529000 M⁻¹ s⁻¹. Against it:
- B17 — 2-fold lower, 265000 M⁻¹ s⁻¹
- B18 — 1.8-fold lower, 295000 M⁻¹ s⁻¹
- B19 — 1.9-fold lower, 273000 M⁻¹ s⁻¹
- B20 — within 1.5-fold, 369000 M⁻¹ s⁻¹

Molecular target: T1, recombinant human IGF-II (Insulin-like …)
Assay: SPR, steady-state KD relative to wild type
Remark: another data set of the same source
Description: […]. Values are the mean±S.E.M. of three separate experiments.
as §2
Following purification, the binding of each mutant construct to IGF2 was assessed by SPR and compared to the wild type domain 11.

Point of comparison: B16, “Relative Affinity” value 0.8 fold (wild type = 1.00). Against it:
- B21 — higher, 0.9 fold (wild type = 1.00)
- B17 — lower, 0.16 fold (wild type = 1.00)
- B18 — lower, 0.11 fold (wild type = 1.00)
- B19 — lower, 0.36 fold (wild type = 1.00)
- B20 — lower, 0.39 fold (wild type = 1.00)

Molecular target: T1, recombinant human IGF-II (Insulin-like …)
Assay: ITC, IGF-II titrated into domain 11
Description: Calorimetric measurements were performed using a VP-ITC microcalorimeter (MicroCal). All solutions were thoroughly degassed before use by stirring under vacuum. […] The sample cell contained either wild type domain 11 (7 uM) or the E1544A mutant (8 μM), also in HBS-E buffer. To correct for the heat effects of dilution and mixing, reaction heats obtained from a control experiment, in which IGF2 was injected into HBS-E, were subtracted. Calorimetric data were analysed using MicroCal ORIGIN software (version 5.0) supplied with the instrument. Thermodynamic parameters were derived by fitting the binding isotherms to a single-site binding model. Values for dissociation affinity constants (KD) were determined from duplicate experiments.
In order to validate the SPR sensorgram data, ITC was used to assess the binding affinity between domain 11 and IGF-II. The affinity of the E1544A mutant was also assessed by ITC in order to confirm whether use of a second technique agreed as to the apparent increase in affinity (FIG. 6 and Table 6). Titrations were performed using 17×15 μl injections of 40 μM IGF-II (after an initial 7.51 injection) into the reaction cell containing wild type domain 11 or the E1544A mutant. […] The two fold differences may be simply accounted for by the fidelity of both techniques.

In the case of B16, the Kd is reported as 209 nM.

Molecular target: T1, recombinant human IGF-II (Insulin-like …)
Assay: SPR (Biacore)

With B16 the Kd was 130 nM.

Molecular target: T1, recombinant human IGF-II (Insulin-like …)
Assay: SPR, IGF-II immobilised, steady state
Description: as §2, §3

Point of comparison: B17, Kd 633 nM. Against it:
- B16 — 4.9-fold lower, 130 nM
- B18 — within 1.5-fold, 930 nM
- B19 — 2.2-fold lower, 289 nM
- B20 — 2.4-fold lower, 262 nM

Molecular target: T1, recombinant human IGF-II (Insulin-like …)
Assay: SPR, IGF-II immobilised, steady state
Remark: another data set of the same source
Method in brief: as §1

Point of comparison: B2, Kd 211 nM. Against it:
- B1 — 15-fold lower, 14.1 nM
- B3 — 5-fold lower, 42.5 nM
- B4 — 11-fold lower, 19.7 nM
- B5 — 7.9-fold lower, 26.7 nM
- B6 — 4-fold lower, 53.2 nM
- B7 — 3.7-fold lower, 57.4 nM
- B8 — within 1.5-fold, 213 nM
- B9 — 6.3-fold lower, 33.7 nM
- B10 — within 1.5-fold, 180 nM
- B11 — 3.7-fold lower, 56.4 nM
- B12 — 1.8-fold lower, 118 nM
- B13 — 4.1-fold lower, 51.1 nM
- B14 — 5.6-fold lower, 37.6 nM
- B15 — 3.5-fold lower, 60 nM
